Assay results published in US20150368299A1 (published 2015).

T1: Aβ(12-42) globulomer (human)
T1 construct: Non-covalent oligomer; the subunit number was not measured
T1 peptide: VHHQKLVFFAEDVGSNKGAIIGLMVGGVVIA


Assays:
Test in all cases: dot blot with densitometry; Aβ form dotted on nitrocellulose in serial dilution, antibody 0.2 µg/ml; higher value = weaker recognition
[1] = biological target: T2, Aβ(1-42) monomer in 0.1% NaOH (human)
T2 construct: also called Aβ(1-42) monomer, 0.1% NaOH
Procedure: (§1) The dot blot was developed with 10 ml BM Blue POD Substrate for 10 min. The development was stopped by intense washing of the dot blot with H₂O. Quantitative evaluation was done based on a densitometric analysis (GS800 densitometer (BioRad) and software package Quantity one, Version 4.5.0 (BioRad)) of the dot intensity. […] This threshold value was determined for every dot blot independently. The calculated value indicates the relation between recognition of Aβ(20-42) globulomer and the respective Aβ form for the given antibody.
(§2) The individual Aβ forms were applied in serial dilutions and incubated with the respective antibodies for immune reaction (1=Aβ(1-42) monomer, 0.1% NH₄OH; 2=Aβ(1-40) monomer, 0.1% NH₄OH; 3=Aβ(1-42) monomer, 0.1% NaOH; 4=Aβ(1-40) monomer, 0.1% NaOH; 5=Aβ(1-42) globulomer; 6=Aβ(12-42) globulomer; 7=Aβ(20-42) globulomer; 8=Aβ(1-42) fibril preparation; 9=sAPPα (Sigma); (first dot: 1 pmol)).

Aβ(1-42) fibril = biological target: T3, Aβ(1-42) fibril (human, UniProt P05067 672-713)
T3 construct: also called Aβ(1-42) fibrils; Aβ(1-42) fibril preparation
Procedure: as §1, §2

[2] = biological target: T4, Aβ(1-42) monomer in 0.1% NH4OH (human)
T4 construct: The range counts on the Aβ peptide; also called Aβ(1-42) monomer, 0.1% NH4OH
Procedure: as §1, §2

Aβ(12-42) globulomer = biological target: T1, Aβ(12-42) globulomer
Procedure: as §1, §2

[3] = biological target: T5, Aβ(1-40) monomer in 0.1% NH4OH (human)
T5 construct: The range counts on the Aβ peptide; also called Aβ(1-40) monomer, 0.1% NH4OH
T5 sequence (peptide, as listed by the source): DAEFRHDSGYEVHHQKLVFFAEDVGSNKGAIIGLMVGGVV
Procedure: as §1, §2

Aβ(1-42) globulomer = biological target: T6, Aβ(1-42) globulomer (human, UniProt P05067 672-713)
T6 construct: the number was not measured for this preparation; also called 38/48-kDa Aβ(1-42) globulomer; Aβ(1-42) globular oligomer
Procedure: as §1, §2

Row | Binder | dot blot relation of recognition of Aβ(20-42) globulomer to recognition of this Aβ form [1] | dot blot relation of recognition of Aβ(20-42) globulomer to recognition of this Aβ form (Aβ(1-42) fibril) | dot blot relation of recognition of Aβ(20-42) globulomer to recognition of this Aβ form [2] | dot blot relation of recognition of Aβ(20-42) globulomer to recognition of this Aβ form (Aβ(12-42) globulomer) | dot blot relation of recognition of Aβ(20-42) globulomer to recognition of this Aβ form [3] | dot blot relation of recognition of Aβ(20-42) globulomer to recognition of this Aβ form (Aβ(1-42) globulomer)
1 | murine monoclonal anti-Aβ(20-42) globulomer antibody m4C9 (antibody, V domains shown, Murine hybridoma antibody from mice immunized with Aβ(20-42) globulomer; also called mAb 4C9; Anti-Aβ monoclonal antibody clone m4C9) VH: QVQLQQPGAELVKPGASVKLSCKAPGYTFTSYWMHWVKQRPGQGLEWIGRIDPKSGDTKYTEKFKSKATLTVDKPSSTAYMQLSSLTSEDSAVYYCTTMSKLSGTHAWFAYWGQGTLVTVSA VL: DIKMTQSPSSMYASLGERVTITCKASQDINSYLTWFQQKPGKSPKTLIYRANRLVDGVPSRFSGSGSGQDYSLTISSLEYEDMGIYYCLQYDEFPLTFGAGTKLELK | 39500 | 32600 | 36000 | 60000 | 27300 | 30000
2 | murine monoclonal anti-Aβ(20-42) globulomer antibody m10B3 (antibody, V domains shown, Murine hybridoma antibody from mice immunized with Aβ(20-42) globulomer; also called mAb 10B3; Anti-Aβ monoclonal antibody clone m10B3) VH: EVKLVESGGGLVQPGGSRKLSCAASGFTFSDYEMVWVRQAPGEGLEWVAYISSGSRTIHYADTVKGRFTISRDNPKNTLFLQMSSLRSEDTAMYYCARTLLRLHFDYWGQGTILTVSS VL: not shown |  |  |  | 41000 |  | 57000
3 | Anti-Aβ monoclonal antibody clone 6E10 (Covance cat. no. SIG-39320) (antibody, V domains shown) VH: EVQLQQSGAELVKPGASVKLCTASGFNIKDTYIHWVKQRPEQGLEWIGRFDPVNVNTRYDSRFRGKATITSDASSNTAYLHLNSLTSEDTAVYYCSRSYYNGRRRFTYWGQGTLVTVSA VL: DIVMTQSPSSLTVTAGEKVALTCKASQSLLSSGNQKNYLTWYQQKPGQPPKLLIYWASIRESGVPDRFTGSGSGTFFTLTISSVQAEDLAVYYCQNDYNYPFTFGSGTKLEIK |  |  |  | 6 |  | 
